Results as given in the DeepSol protein solubility set.

Assay: soluble on expression in E. coli; label from the status in PepcDB or PDB records

Sequence | soluble on expression in E. coli
MSVPSSLSQSAINANSHGGPALSLPLPLHAAHNQLLNAKLQATAVGPKDLRSAMGEGGGPEPGPANAKWLKEGQNQLRRAATAHRDQNRNVTLTLAEEASQEPEMAPLGPKGLIHLYSELELSAHNAANRGLRGPGLIISTQEQGPDEGEEKAAGEAEEEEEDDDDEEEEEDLSSPPGLPEPLESVEAPPRPQALTDGPREHSKSASLLFGMRNSAASDEDSSWATLSQGSPSYGSPEDTDSFWNPNAFETDSDLPAGWMRVQDTSGTYYWHIPTGTTQWEPPGRASPSQGSSPQEESQLTWTGFAHGEGFEDGEFWKDEPSDEAPMELGLKEPEEGTLTFPAQSLSPEPLPQEEEKLPPRNTNPGIKCFAVRSLGWVEMTEEELAPGRSSVAVNNCIRQLSYHKNNLHDPMSGGWGEGKDLLLQLEDETLKLVEPQSQALLHAQPIISIRVWGVGRDSGRDFAYVARDKLTQMLKCHVFRCEAPAKNIATSLHEICSKIMAERRNARCLVNGLSLDHSKLVDVPFQVEFPAPKNELVQKFQVYYLGNVPVAKPVGVDVINGALESVLSSSSREQWTPSHVSVAPATLTILHQQTEAVLGECRVRFLSFLAVGRDVHTFAFIMAAGPASFCCHMFWCEPNAASLSEAVQAACMLRYQKCLDARSQASTSCLPAPPAESVARRVGWTVRRGVQSLWGSLKPKRLGAHTP | soluble
WYKDRGVYHWLSSGQEGTDIPYLGSSVFCSELYEKQMELIRLQHQKLHETEAKLDARVTYMNQWVHQVKTPLSVINLIIQEEDEPVFEQIKKEVRQIEFGLETLLYSSRLDLFERDFKIEAVSLSELLQSVIQSYKRFFIQYRVYPKMNVCDDHQIYTDAKWLKFAIGQVVTNAVKYSAGKSDRLELNVFCDEDRTVLEVKDYGVGIPSQDIKRVFDPYYTGENGRRFQESTGIGLHLVKEITDKLNHTVDISSSPGEGTSVRFSFLTK | not soluble
MTKKYDLHCHSTASDGVLSPTELVHRAYAQGVNVLALCDHDTIAGIDEAEIAAKEVGIELITGVEISTNWEGRGIHIVGLNFDKTHPKMTALLQSQKALREKRAVEIGDKLEKAGIPNAYDGAKALADGEVTRAHYARYLVQIGKVSNDGQAFKRYLGQGKSAFVKAEWADIPTAIETIHAAGGIAIIAHPLRYNMTGKWVRKLIVDFKAWGGDGMEMADCGQTKDQRQMLARWAKEFDLQGSVGSDFHFPCGWIELGKNLDLVDSVIPVWEKF | not soluble
MSENHVPAWKRIALKRQTISSGDESKEKGQSNLIDDDPLNITTHLSTGNLTKKEKKRIINGESKSSTKKGKRVSKPGTKKKEKLSKDEKNSKKNKILKDQLRYLIEFFRTKSESKFPTGILELESVKENYGDSLIKDEPSESGVVEVWKFSKQKQNWLIKHFFNLDEIPSVYNDLLLLYFRDLQGKSKEELISKCKGKLKQWNDYVEDQETKIKALIAEDKASEPINGEEKEEGEKDGNAEQGKQKEVQDEQEEVQMPNKELVQRSLKLLEIWKNDDSEQIELKNFFVDV | soluble
MGSDKIHHHHHHLGFKIEAELLQAMKDLKDSVPASGSERVRNEFIQILLSELPSQGIRRLLELGLLERLIPELMPAIGFDTRSSYHDKDVFEHSLAVLDNTEPNLTLRLAALLHDIDKPNSLTVDEDGEGYCYGHASGGSEIARTILGRLNFDRKTIKAVSAIIKEHMNDFENISELSIKRLIRRVGPDNIDRLFELQLADIKGSKLSSRSPERITKTRNKCFEVLSRREPLTVHDLDISGYDLFSLGYPPGKEIGEAMDYLLDQVINNPSLNQRDTLIALLMNQ | not soluble
MGHHHHHHSHVLLNEILEQVKDRTCLRALEKIKIQLEKGNKEFGDQAEAAQDATLTTTTFQNEDEKNKEVYMTPLRGVKATQASKSTQLKTNRGQRKVTVSARTNRRCQTAEADSESDHEVPEPESEMKMRLPRRAKTAALEKSKLNLAQFLNEDLS | not soluble
MTSFSLIATAAMGLESVVAEEVRRLGYECQVENGKVTFEGDALAICRANLWLRTADRVKLKVGEFRATTFEELFEQTKALPWADYLPKDAEFPVIGKSVKSTLFSVSDCQAIVKKAVVESLKARYHLSWFPETGPLYRIEVALHKDIATLTIDTSGAGLHKRGYRARQGEAPLRETLAAALVLLTNWTPDRPFVDPFCGSGTIAIEAALIGQNIAPGFNRDFVSEQWPWIGESVWEEARQEAEQMARYDQPLDICGIDLDPHMVEIAKMNAAEAGLSDLISFREGRAEQFRTDAQYGVIVGNPPYGERLGEQREVEALYRAIGRAFAALDTWSVYILTAHRGFETHYGRPATKRRKLFNGFIETHYYQYWGPRPPREARS | not soluble
MDPFGILYTDLYQLTMGQVYFRMGLHEKEALFEAFYRRNPDYGAHQAGYTVFAGLDPLLSWMEEARFGEEEIAALRNLKSRSGKPLFAEDYLRYLKAMGGFSGLTLRALPEGRVAHPQVPLVSVEGPLLQAQLLETALLNRLNYETLIATKASRVREAAGEAVVLEFGLRRAPAKGGESATRASLIGGANRSSAVSLSHLLGLPASGTHAHSLVQAFMALGYSEEDAFRAFAEVFPDDAILLLDTVDTLHSGLPHAIRVFEELRRKGHRPVGVRIDSGDLAHLAIQVARELDRAGFPEVLIVLSGDLDELVIWQIKSQILEEAPRYGVDPDRLLKRLVYGVGTRMVVSWGAPALGGVYKLVAVRENGTWAPAMKVSNSLEKVLNPGHKRVYRVYDERGLATADLLALAEEEVREDAPLTLRHPTDPTKRRTLRPGSFRLEPLLEEVYRGRRLFPPLPLEELRKRRDRDVALLDPGVRRLVNPHVYHVSLTERLFALKEELVRRLEG | soluble
MTCDDLKSGEKRLIPKPTCRFKDAFQQYPDLLKSIIRVGILKPTPIQSQAWPIILQGIDLIVVAQTGTGKTLSYLMPGFIHLDSQPISREQRNGPGMLVLTPTRELALHVEAECSKYSYKGLKSICIYGGRNRNGQIEDISKGVDIIIATPGRLNDLQMNNSVNLRSITYLVIDEADKMLDMEFEPQIRKILLDVRPDRQTVMTSATWPDTVRQLALSYLKDPMIVYV | soluble
MGSDKIHHHHHHAERISFFYPPFGEFSLSVDSLETFAKVGKIDRDFSFYASRATPQQLAQLRDLLQQRFNLTPTLVSQVTYSPIGEQLVQQLGKLLLTESRQNGFYAIRASLILAAADREGLTVVNLLRKFPSNTVRVNFTEGLRIVDDLSQLLKKKDEVVASLQKEAIAQAANSTVDFSKQPDLRSPGKFRWLKKSLELNDISRSRRLPVDIYLPTTQNSEPTDQNSPSPPFPLIVISHGLASDRSTFVYLAEHLASYGFAVAVLEHPGSNAKRFQEYFAGLASPPEPEEFIDRPLDIKYLLDELQRLEKSDPSLHGKLNFQQVGAIGQSFGGYTVLTLAGAKINFEQLRQDCNPNNSSFNLSLLLQCEASKLPQKNYELKDDRIKAIMAINPIDSLVLGEGGVSQIKMPVMLVAGSQDIFAPPVFEQIRPFTWLSDPNKYLALIENATHFSAIAEPTPENDVLPVPPALLGPDRDAVYSYLNALSVAFMETHLLNRPEYRSYLQPSYATFISKEPLNLSILQSLSVAQFNQIWSASIPQSAKLSNPQPTPR | not soluble
KTTTTIYDKNKEYAGKLSGQKGTYVELNAISDHLKNAVIATEDRTFYENNGVNFKRFFLAVATLGKFGGGSTITQQLAKNAYLSQDQTIKRKAREFFLALELTKKYSKAEILTMYLNNSYFGNGVWGVEDASRKYFGTSAANLTVDEAATLAGMLKGPEVY | not soluble
MNQELKLRPLEREDLKFVHELNNNAHIMSYWFEEPYEAFVELQDLYDKHIHDQSERRFIVEKDNEMVGLVELVEIDYIHRRTEFQIIIDPNYQGYGYAVEATRLAMDYAFAVLNMHKIYLVVDKENEKAVHVYKKVGFMVEGELIDEFFVDGNYHNAIRMCMFQKQYFENK | not soluble
MSLQGLWIYPEDTEVLGVACKSLLKALTPRYQKVALFSPISGGCESLEECESLNPLEFHSAISKQKALELASTAQEELLFETILKRYDELQSTHDFVINLGCAPKFFLNAPLDLNTILAKHLNASVVAVAQTSLEYLKAMHSHILKKEAPFAVGLFAGETLEKPHFLSMSLCKQQCELEADLIESVLQIKSEIITPLAFQRGLEKKAKKQIKKVVLPESEKMKGFEGHHHHHH | not soluble
MSLQDTWGGKMNTLGDRVLLCNDKRSLPAAAVATPFLFESMLFSVCTRGYARLLIDSREIEVKEGELLVVMPRKTIEVIESSCFRAFHLCLDKEILALSAIRISGFISIINKLHSNEPFRPERMEKDFLTATLDLIRNALQNGGRHQEEIVIYLISSLFLFLDDMIADEVEKDCKHTRSETICRDFLLLVSEHHKEQHTVKFYADRLCLSSKHLALTIKTVMGQSASKVINSFIIQQAKSLLRYTDKTVQEIGYELNFSTQSFFGKYFKQHTGMSPGEYRSQEARNRQSEES | not soluble
EEYPDGFAPMKPDQAEEAVLAGIALSACLIETNRRERFADRLRAAAGALREDWVVKIGDNHVAARLLDGLVTIPFDMDIAIEGAIEGESKSVVTDWR | not soluble
GLETSSKKYSLGKTLGTGSFGIVCEVFDIESGKRFALKKVLQDPRYKNRELDIMKVLDHVNIIKLVDYFYTTGDEEPKPPQPPDDHNKLGGKNNGVNNHHKSVIVNPSQNKYLNVIMEYVPDTLHKVLKSFIRSGRSIPMNLISIYIYQLFRAVGFIHSLGICHRDIKPQNLLVNSKDNTLKLCDFGSAKKLIPSEPSVAYICSRFYRAPELMLGATEYTPSIDLWSIGCVFGELILGKPLFSGETSIDQLVRIIQIMGTPTKEQMIRMNPHYTEVRFPTLKAKDWRKILPEGTPSLAIDLLEQILRYEPDLRINPYEAMAHPFFDHLRNSYESEVKNNSNFPHGVNQNIPQLFNFSPYELSIIPGNVLNRILPKNFSPNYKH | soluble
MSLELPILPTSVIGSYPKPRWLLRMYKLRELGKIPEEDFKEAVRDASISVLREHERAGIDIPWDGEMGRSEMTEYFTSKIKGFKFYGPVRVWGNAYFNKAAAVDKLEYEEPLVLDEFLWVKENTTREIVKIPITGPYTIAEWSFNEYYPDKESFVMDLAEIINKELKVLEKHGAKFVQLDEPAMLNHPSEVPLAVDAINRAVKGIKMKVGLHVCYSNYNLLADYFDEIKVTQFALEFANRNFRDMDFLKKLSNKELGFGVVDVHNPRVESVEEIRQAIKKVFTYLEPEWVYINPDCGLKLLDRKIAYQKLVNMVQAVRGVRKELEKEGKTTIEFRTLKDIEGHHHHHH | soluble
MEALRSAPRAAHFLPMELQSSGERSPPREGAPVGTGATAGETPSAAPSGTPLWIPPRLATLDEVTLCHNIHRYRCFIEEGTALLPPLKTDVYCNGKTSSIATRLSVGAVVDAARRALSGSPAFAFCLVRPPGHHASADTPSGFCLVNNVAIAAMQLLQDWHVKYDCGVGGSRSVPSEERDIPERPRIAIVDIDVHHGEGTQSFVEVEPQLLYLSLHRYDRGSFYPCDPAGATSYVGQHRNICNVAVDTAATDPARCEEVISDMLFARVVDDVFLPRLEQFHPNIILLSLGFDAAHGDPLGRMAVEGGFAYVVRALKRFCLQSQGTIGLVAVLEGGYSPEGVSRGVVSVAHALCYPFDDVAVVNYARLRTPKTWMELRSRLSRRMEVRTDETGGATSLSSGLSSQGLGDATSTERAIAD | not soluble
MGSDKIHHHHHHMVVALQYRTDLLEIHRFTRFESSLAHLGFRHFQPLASLRPWVHRYFHLQVATNLPQSIEQTFYPDGGTSLQFYFPAPSLNTNSDEPKVVFHCGQSLHSHAFVPGIEQMIVRFHPGGAFHLLGIAVQEIQQTSSHTVIEATQLHLPGLNQLLSQLADTNQPMQRIAQLEQWLLQLIKPQLDRGTWSTAGIVQMSLPRLIQPQTRLENFYGQLALSRRQFERRFKQETGLSPAQLQQLNRVKIARDLLSQSPELNLAQVAFDCGFYDQAHLHQHFVRVTQQTPGQYKKRKMSQISNLTQR | not soluble
